Data reported in patent publication US20060257938A1, “Method of screening for drugs that block ligand binding to a lipid binding protein” (priority 2005, published 2006).
Numbering of substitutions follows the chain as printed. Where “and” joins values, the source holds several entries; their conditions need not be identical. Equal values may be shown once.

B1: 119K, 72A (protein, listed as Rattus norvegicus)
chain: AFDGTWKVDRNENYEKFMEKMGINVVKRKLGAHDNLKLTITQEGNKFTVKESSNFRNIDVVFELGVDFAYSAADGTELTGTWTMEGNKLVGKFKRVDNGKELIAVREISGNELIQTYTKEGVEAKRIFKKE
modifications: PEPTIDE (1)...(131) wild-type rat intestinal fatty acid binding protein
B2: 102G, 72A (protein, listed as Rattus norvegicus)
chain: B1 chain with L102G, K119Y
modifications: PEPTIDE (1)...(131) wild-type rat intestinal fatty acid binding protein
B3: 11C, 72A (protein, listed as Rattus norvegicus)
chain: B1 chain with N11C, K119Y
modifications: PEPTIDE (1)...(131) wild-type rat intestinal fatty acid binding protein
B4: 119V, 72A (protein, listed as Rattus norvegicus)
chain: B1 chain with K119V
modifications: PEPTIDE (1)...(131) wild-type rat intestinal fatty acid binding protein
B5: 11G, 72A (protein, listed as Rattus norvegicus)
chain: B1 chain with N11G, K119Y
modifications: PEPTIDE (1)...(131) wild-type rat intestinal fatty acid binding protein
B6: 119Q, 72A (protein, listed as Rattus norvegicus)
chain: B1 chain with K119Q
modifications: PEPTIDE (1)...(131) wild-type rat intestinal fatty acid binding protein
B7: 119T, 72A (protein, listed as Rattus norvegicus)
chain: B1 chain with K119T
modifications: PEPTIDE (1)...(131) wild-type rat intestinal fatty acid binding protein
B8: 102F, 72A (protein, listed as Rattus norvegicus)
chain: B1 chain with L102F, K119Y
modifications: PEPTIDE (1)...(131) wild-type rat intestinal fatty acid binding protein
B9: 119S, 72A (protein, listed as Rattus norvegicus)
chain: B1 chain with K119S
modifications: PEPTIDE (1)...(131) wild-type rat intestinal fatty acid binding protein

Test: Probe fluorescence ratio response to linoleic acid relative to ADIFAB2
Type: binding
Conditions: response relative to ADIFAB2
Description: (§1) In an alternate preferred embodiment, the protein is rI-FABP that has Ala substituted for Leu at position 72 (rI-FABP-L72A) with the resulting probe named ADIFAB2. […] Other probes useful in embodiments of the invention are shown in Tables 1-6 and are also described in U.S. application Ser. No. 11/085,792, filed Mar. 21, 2005 which is incorporated herein by reference. The indicated substitutions are with reference to the ADIFAB protein of SEQ ID NO: 2.
(§2) ADIFAB2 also has an altered spectral response, making it especially useful for measurements of FFAu in blood samples (Apple et al, Clinical Proteomics, (2004) 1:41-44, U.S. patent application Ser. No. 10/670,958). The wavelengths at the maximum intensities emitted by these fluorescently-labeled I-FABP's in the absence of FFA is about 420 to 480 nm. The emission wavelengths at the maximum intensities emitted by these fluorescently-labeled I-FABP's with FFA bound are between about 495 to 580 nm. Experiments typically involve measuring the fluorescence response within both emission maxima or at wavelengths for which the effect of interfering molecules such as hemoglobin can be eliminated as described in U.S. application Ser. No. 10/670958 and PCT/US2004/030521 and the calculation of the ratio ‘R’ of the two fluorescence intensities. The baseline value for this ratio, measured in the absence of analyte, is designated R0.
(§3) The intensity ratio (“R” value) is determined as follows. The ratio is calculated using the following formula: R=Fλ1/Fλ2 wherein, Fλ1 is the measured fluorescence intensities (intensity of sample with probe present minus intensity of sample without probe present) at wavelength 1 and Fλ2 is the measured fluorescence intensities (intensity of sample with probe present minus intensity of sample without probe present) at wavelength 2. Then, for a given probe, ΔR, the difference in R value between the measurement in the presence of the test compound (agent) and in the absence of the test compound (agent), is calculated as follows: ΔR=R+agent−R0 In some embodiments, the ΔR value may then be compared to some reference, for example, an agent with a known affinity for a given probe, by ΔR/ΔRreference. Measurements of fluorescence intensities are obtained using standard techniques.

Molecule | DR/DR LA
B1 | 0.85
B2 | 0.78
B3 | 0.70
B4 | 1.01 and 0.720
B5 | 0.70
B6 | 0.58
B7 | 1.22
B8 | 0.73 and 0.657
B9 | 0.46 and 0.457

Test: Probe fluorescence ratio response to oleic acid relative to ADIFAB2
Type: binding
Conditions: response relative to ADIFAB2
Description: as §1, §2, §3

Molecule | DR/DR OA
B1 | 0.87
B2 | 0.65
B3 | 0.70
B4 | 1.02 and 0.780
B5 | 0.62
B6 | 0.60
B7 | 1.26
B8 | 0.64 and 0.554
B9 | 0.71 and 0.714

Test: Probe fluorescence ratio response to palmitic acid relative to ADIFAB2
Type: binding
Conditions: response relative to ADIFAB2
Description: as §1, §2, §3

Molecule | DR/DR PA
B1 | 0.58
B2 | 0.36
B3 | 0.80
B4 | 0.57 and 0.480
B5 | 0.61
B6 | 0.35
B7 | 0.79
B8 | 0.43 and 0.369
B9 | 0.37 and 0.373

Test: Probe fluorescence ratio response to linolenic acid relative to ADIFAB2
Type: binding
Conditions: response relative to ADIFAB2
Description: as §1, §2, §3

Molecule | DR/DR LNA
B1 | 0.78
B2 | 0.38
B3 | 0.64
B4 | 1.00 and 0.710
B5 | 0.67
B6 | 0.62
B7 | 1.21
B8 | 0.53 and 0.588
B9 | 0.73 and 0.734

Test: Probe fluorescence ratio response to arachidonic acid relative to ADIFAB2
Type: binding
Conditions: arachidonic acid; response relative to ADIFAB2
Description: as §1, §2, §3

Molecule | DR/DR AA
B1 | 0.78
B2 | 0.63
B3 | 0.52
B4 | 0.99 and 0.750
B5 | 0.63
B6 | 0.60
B7 | 1.22
B8 | 0.95 and 0.858
B9 | 0.78 and 0.781
